# Test results published in IntAct's records for PubMed 24535599.
# B1: Growth factor receptor-bound protein 14 (Homo sapiens), Q14449 (parent)
# chain: MTTSLQDGQSAASRAAARDSPLAAQVCGAAQGRGDAHDLAPAPWLHARALLPLPDGTRGCAADRRKKKDLDVPEMPSIPNPFPELCCSPFTSVLSADLFPKANSRKKQVIKVYSEDETSRALDVPSDITARDVCQLLILKNHYIDDHSWTLFEHLPHIGVERTIEDHELVIEVLSNWGIEEENKLYFRKNYAKYEFFKNPMYFFPEHMVSFATETNGEISPTQILQMFLSSSTYPEIHGFLHAKEQGKKSWKKIYFFLRRSGLYFSTKGTSKEPRHLQFFSEFGNSDIYVSLAGKKKHGAPTNYGFCFKPNKAGGPRDLKMLCAEEEQSRTCWVTAIRLLKYGMQLYQNYMHPYQGRSGCSSQSISPMRSISENSLVAMDFSGQKSRVIENPTEALSVAVEEGLAWRKKGCLRLGTHGSPTASSQSSATNMAIHRSQPWFHHKISRDEAQRLIIQQGLVDGVFLVRDSQSNPKTFVLSMSHGQKIKHFQIIPVEDDGEMFHTLDDGHTRFTDLIQLVEFYQLNKGVLPCKLKHYCARIAL
# Variants of: B1
# Conditions: with INSR
row,Variant,effect of a mutation on the interaction
1,MTTSLQDGQSAASRAAARDSPLAAQVCGAAQGRGDAHDLAPAPWLHARALLPLPDGTRGCAADRRKKKDLDVPEMPSIPNPFPELCCSPFTSVLSADLFPKANSRKKQVIKVYSEDETSRALDVPSDITARDVCQLLILKNHYIDDHSWTLFEHLPHIGVERTIEDHELVIEVLSNWGIEEENKLYFRKNYAKYEFFKNPMYFFPEHMVSFATETNGEISPTQILQMFLSSSTYPEIHGFLHAKEQGKKSWKKIYFFLRRSGLYFSTKGTSKEPRHLQFFSEFGNSDIYVSLAGKKKHGAPTNYGFCFKPNKAGGPRDLKMLCAEEEQSRTCWVTAIRLLKYGMQLYQNYMHPYQGRAGCSAQSIAPMRSISENSLVAMDFSGQKSRVIENPTEALSVAVEEGLAWRKKGCLRLGTHGSPTASSQSSATNMAIHRSQPWFHHKISRDEAQRLIIQQGLVDGVFLVRDSQSNPKTFVLSMSHGQKIKHFQIIPVEDDGEMFHTLDDGHTRFTDLIQLVEFYQLNKGVLPCKLKHYCARIAL [S358A;S362A;S366A],increasing interaction strength
